Our source for the Kd values is paper PMC12525431 (International Journal of Molecular Sciences, 2025).

This assay addresses sTREM-1 (UniProt Q9NP99-2 21-150, labelled with Alexa Fluor 488 (Protein Labeling Kit)). The assay is described as follows: MST; sTREM-1 labelled with Alexa Fluor 488; peptide in 16 concentrations by sequential dilution; 30 min in the dark at room temperature; Monolith NT.115, 8% IR laser power; at least three replicates. Particulars: both partners purified.

Chain of sTREM-1 (Q9NP99 other isoform, or with tags, fused parts or gaps): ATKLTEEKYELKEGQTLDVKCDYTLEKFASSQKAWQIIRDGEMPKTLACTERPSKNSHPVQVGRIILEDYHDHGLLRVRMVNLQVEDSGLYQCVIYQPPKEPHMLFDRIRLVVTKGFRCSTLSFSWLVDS

B1: peptide N7 (16aa peptide of Hsp70) (peptide)
peptide: SDNQPGVLIQVYEGEK
notes: Hsp70, human; Found by MALDI-TOF in a trypsin hydrolysate of recombinant human Hsp70, then synthesised; also called N7 peptide; Hsp70 N7 peptide; source: synthetic peptide (Fmoc, purified by HPLC)
What is called Kd is the concentration at which binding is half-saturated. A lower Kd goes with higher affinity. Molecule B1 came in with a Kd of 1.6 nM.
